Assay results as given in patent publication US10801046B2, “Methods and materials for biosynthesizing multifunctional, multivariate molecules via carbon chain modification” (INVISTA NORTH AMERICA S.A.R.L., priority 2016, dated 2020).

B1: FatB2: plant thioesterase FatB2 from Cuphea hookeriana, fatty acid acyl-ACP thioesterase, positive control (protein, listed as Cuphea hookeriana)
chain: MVAAAASSAFFPVPAPGASPKPGKFGNWPSSLSPSFKPKSIPNGGFQVKANDSAHPKANGSAVSLKSGSLNTQEDTSSSPPPRTFLHQLPDWSRLLTAITTVFVKSKRPDMHDRKSKRPDMLVDSFGLESTVQDGLVFRQSFSIRSYEIGTDRTASIETLMNHLQETSLNHCKSTGILLDGFGRTLEMCKRDLIWVVIKMQIKVNRYPAWGDTVEINTRFSRLGKIGMGRDWLISDCNTGEILVRATSAYAMMNQKTRRLSKLPYEVHQEIVPLFVDSPVIEDSDLKVHKFKVKTGDSIQKGLTPGWNDLDVNQHVSNVKYIGWILESMPTEVLETQELCSLALEYRRECGRDSVLESVTAMDPSKVGVRSQYQHLLRLEDGTAIVNGATEWRPKNAGANGAISTGKTSNGNSVS
B2: SEQ ID NO: 58: Spongiibacter sp. IMCC21906 thioesterase (protein)
chain: MTHFIQFLPGRISPRRALALLLVLLLQGALPRIVLADTILLLGDSLSAAYKIPVESSWPALLQDSIDEEHSLKNASVSGETTAGGLARLPALLAKNNTDILIIELGGNDGLRGYPLVRIRENIEKMIKLGQKKGAKVVLLGMHIPPNYGRRYADGFHNIYLSLAEENNTALLPFLLDGVAKQPRLMQGDGIHPTAEAQPIILQNVLSVLRPLLDSTN
modifications: Spongiibacter sp. IMCC21906
notes: Spongiibacter sp; IMCC21906 thioesterase
B3: SEQ ID NO: 81: Citrobacter rodentium thioesterase (protein)
chain: MVNFNNVFRWHLPFLFLILFTCRSVAADTLLILGDSLSAGYRMSASAAWPALLNDKWHSKTTIVNASISGDTSGQALARLPALLKQHQPRWVLVELGGNDGLRGFSPAQTEQTLRTILQNVKAASAEPLLMQIRLPANYGRRYNETFSAIYPKLASEFDIPLLPFFMEEVYLKPQWMQDDGIHPNRDAQPFIADWMAKQLSPLVKYES
modifications: Citrobacter rodentium (strain ICC168)
notes: Citrobacter rodentium thioesterase
B4: SEQ ID NO: 77: Spirochaeta smaragdinae thioesterase (protein, listed as Sediminispirochaeta smaragdinae)
chain: MKQVSRYTTEHTVMYSETDARGVLSLPSFFALFQEAALLHAEELGFGETYSKQENLMWVLSRLLLEIDAFPKHRDRIRLSTWPKQPQGPFAIRDYILESEEGTVCARATSSWLLLKLDTMRPIRPQTIFANLSMEGIGLAVEGTAPKISEIDNDSKQEMEVTARYSDLDQNNHVNNTRYVRWFLDCYTPEEITTSGNLHFAINYLQAASYSDKLLLRRYDTESDSSVYGYLEDGTPSFSARIERKSD
modifications: Sediminispirochaeta smaragdinae (strain DSM 11293 / JCM 15392 / SEBR 4228)
notes: Spirochaeta smaragdinae thioesterase
B5: SEQ ID NO: 68: Agathobacter rectalis DSM 17629 thioesterase (protein)
chain: MAFSFDSRIRYSEVDSSCRLSLTGLTNYFQDCSVFHSQSHDVGIRFLADNHIAWVLSSWQICINRLPLLNEQVKISTWAYGMKAFYGYRNFTLEDAGGSTLAYANSVWVLVDTRTGRPVKVPQEFADTYGLEPQLEMECAKRKLHIPDDMEKKGEIEVPQFFIDSNHHMNNEKYVMLAQQLLPNDFEISELRVEYRKEAKLGDTVISYVKYTSKSVTVVLADTDKKPYSVVEFLSKPVPGK
modifications: Eubacterium rectale DSM 17629
notes: Agathobacter rectalis DSM 17629 thioesterase
B6: SEQ ID NO: 78: Opitutus terrae thioesterase (protein)
chain: MPEKLTLNASVLYADVDRTEVLLLRGVFKFLQEAAITHANQFDLGSRAMATRGESWVLNRMAVAVHRYPRYEETMRIETWSRGIKGFKGYREFRVFDAQGAPLFSGSSLWLYVNMRTKSIIRVPAELAAEFPKRDDGAFFPELESLEFAPPAADARRVPIAIRYSDVDVNAHVNNTAYLDFLQEALARAGLSPRPQSIRIKYARAIPAEAETVRVAIEPRGTGAAFAIEDHDTIFAIGEVD
modifications: Opitutus terrae (strain DSM 11246 / JCM 15787 / PB90-1)
notes: Opitutus terrae thioesterase
B7: SEQ ID NO: 79: Thermincola potens thioesterase (protein)
chain: MEPYQTSIPVHYYEINNHRQASPVAILNYLEEAAIRHSESVGWGIEKLLANSRGWLLTRWSLHMQKYPQWGETVNIETWPYKFERFYATREFRISDREGRVLGAATTLWVFFDLRRKRPVRIPPDIYDAYGTGAERMVADEFADLPVVDEPEIKLEFRVRLSDIDTNDHVNNTKYVEWLLETVPLSVHNGFLLSSVEIAYKKETSYGSTVLCGIKETEAGERQTTFLHIILDKDSGTELARARTVWQKRSKI
modifications: Thermincola potens (strain JR)
B8: SEQ ID NO: 122: Mesorhizobium sp. LC103 aminotransferase (protein)
chain: MLDKPPLSNLQARDVASVLHPYTPLHKLETMGPLVIERGEGVYVYDTQGKAYIEGMSGLWCAGLGFGDEEMIDAATEQLRTLPYYHLFGAKGTESAIELAEKLKEIAPVPISKVFFTSSGSEANDTQVKLAWYLNNALGRPNKKKIISRQKAYHGVTIMSASLTGLPYNHIGWDLPVDRVLHTDCPHYYRFGQEGESEAEFVNRMVKSLRDLIEREGPDTIAAMIAEPVMGAGGVIVPPEGYYPAIQAVLDEHDIIMISDEVINGFGRTGNWWGSQTLGMTPKTISAAKQMTSAYAPLGAVMVPEDIYQAYVSHSEKIGTFGHGFTYGGHPLGCALGVKAIEIYQKRDILGHVRSLSPQFERRMRKLTEHPLVGEARYCGLVGGVEIVADKKTKRPFDPKVGVGPQCAKFVEERGAILRAIGDTIALCPPMIIKEDELDELFDRLEKALDDTEAWVAKEGLRAL
modifications: Mesorhizobium sp. LC103
notes: Mesorhizobium sp; LC103 aminotransferase
B9: SEQ ID NO: 102: Peptoniphilus harei ACS-146-V-Sch2b thioesterase (protein)
chain: MKIFCKEYEVMNFLSSDGDLKLNHLVSYLIETSNYQSIDLGLSNEKLLDMGYTWMIYKWKIKINRYPRSYEKIKIKTWASGFKNINAFREFEVYCQGEKIIEASAIFLLIDVEKRKAIKIPEVLAEIYGNNGNRIFKSIERVNEPSELEIANRFSYKILRRDLDFNNHVNNSVYLELIYEAVTDEYTHVKFKDINVNYINELKLGDEIVIDFYREEDRFYFFFKSKDQSQIYARICGVSETPIS
modifications: Peptoniphilus harei ACS-146-V-Sch2b
notes: Peptoniphilus harei ACS-146-V-Sch2b thioesterase
B10: SEQ ID NO: 72: Terrisporobacter othiniensis thioesterase (protein, listed as Terrisporobacter othiniensis)
chain: MERVFTKEYEVTYRDTDARGECFLTSYMNFMADCGLSQDEKYGFVIADMVKENHTWMLVDYEITIYKYVKYKEKLRAITYIEGMNKFYAVRYFKIYNDKDDLILEGKTLVILVDSKKRRPLSIPDEHYKAYGVEEKTPTIGRNKLKLSKCKNVDYKKEFNVRYSDIDLNLHVGNVTYLGWILETIPFEIMTDYKIYSVKIKYQKELTYGDKVSVKTEMEYNDNNISAYHEIINESEEVVALLETHWNEI
B11: SEQ ID NO: 80: Clostridium sp. CAG:306 thioesterase (protein)
chain: MLFTKEYEIKYYEQNVNGDLKESALLNFLQDIATLSAESLGFGPSFVFANNYAWVVLKYHIELFAPLRNLSSIVIKTEPRGIAKLYAYRDFELYTKDGQCIGKAVSTWVLIDICTRKLLNTQKILADFMAPYQKRETDLVYEKIDSPDELMYQEVFDVRFDDIDVNRHANNSNYIVWALETLPVDFRLKHSPKTIDIKYKKEIGINSRVLSEAQQILTDGNVQTLHVIKDEQNAQDLTSLKIVWQ
modifications: Clostridium sp. CAG:306
notes: Clostridium sp; CAG:306 thioesterase
B12: SEQ ID NO: 74: Cellulosilyticum lentocellum thioesterase (protein, listed as Cellulosilyticum lentocellum)
chain: MSRLKENYQVDFDVVDFTGKLSINGLCSYMQTVAAKHATKLGINFYKNGEKPTYYWILSRVKYEIDTYPRWEDLVSLETYPGGYEKLFAVRLFDLTDEKGELIGRITGDYLLMDAEKGRPVRIKGATGPLSVLDFPYEGRKIDKIEVPEVVLREQIRKAYYSELDLNGHMNNAHYIRWTVDMLPLEVLKENEIVSLQINYNASITYGVETKLIIGKNEAGNYLVAGNSLDDSVNYFTSEIILRKNK
modifications: Cellulosilyticum lentocellum (strain ATCC 49066 / DSM 5427 / NCIMB 11756 / RHM5)
notes: Cellulosilyticum lentocellum thioesterase

Assays:
[1] = tested on: heptanedioyl-ACP methyl ester; type: cell-based, Escherichia coli; conditions: for monomethyl heptanedioate production: bioH deletion strain, TB supplemented with 1 mM IPTG and 2 mM L-rhamnose; for activity toward heptanedioyl-ACP methyl ester in vivo: top 150 hits screened in vivo; for impact on monomethyl heptanedioate production: 146 thioesterases screened
[2] = In vivo aminotransferase activity screening, 7-aminoheptanoate by LC-MS; type: cell-based, Escherichia coli; conditions: in vivo conversion of 7-oxoheptanoate to 7-aminoheptanoate, 120 aminotransferases screened
Protocol: A 165-member aminotransferase library from Twist on IPTG-inducible T7- pUC expression vectors was co-transformed into T7 Express lysY/Iq with a constitutive expression pJ23150-derived plasmid bearing the phosphopantetheinyl transferase sfp from Bacillus subtilis, CAR_Srot from Invista and BioC from Serratia marcescens (UniprotKB Accession No. P36571 (SEQ ID NO: 165)). The resulting strains were incubated in 0.5 ml of rich media (terrific broth or LB containing 8% glycerol) supplemented with 0.4 mM IPTG and received 1 g/L monomethyl heptanedioate, 1 g/L heptanedioate, or no organic acid addition, depending on the experiment. Following incubation overnight at 37° C. in a shaking incubator, cells were pelleted and the supernatants were analyzed using LC-MS for 7-aminoheptanoate or monomethyl 7-aminoheptanoate. A Vibrio fluvialis aminotransferase (UniProtKB Accession No. F2XBU9 (SEQ ID NO: 128)) was used as a positive control.

Molecule	activity toward heptanedioyl-ACP methyl ester in vivo [1]	other results
B1	–	monomethyl heptanedioate production higher than the negative control [1]: about 10 mg/L; monomethyl heptanedioate production [1]: approximately 14 mg/L
B2	showed activity toward heptanedioyl-ACP methyl ester	–
B3	showed activity toward heptanedioyl-ACP methyl ester	–
B4	showed activity toward heptanedioyl-ACP methyl ester	–
B5	showed activity toward heptanedioyl-ACP methyl ester	–
B6	showed activity toward heptanedioyl-ACP methyl ester	–
B7	showed activity toward heptanedioyl-ACP methyl ester	–
B8	–	7-aminoheptanoate yield compared to the positive control (F2XBU9) [2]: higher 7-aminoheptanoate yields
B9	showed activity toward heptanedioyl-ACP methyl ester	impact on monomethyl heptanedioate production [1]: promising
B10	showed activity toward heptanedioyl-ACP methyl ester	impact on monomethyl heptanedioate production [1]: promising; monomethyl heptanedioate production [1]: 48 mg/L
B11	showed activity toward heptanedioyl-ACP methyl ester	–
B12	showed activity toward heptanedioyl-ACP methyl ester	impact on monomethyl heptanedioate production [1]: promising
